Experimental findings from patent US20100144530A1, “IDENTIFICATION OF A NEW CLASS OF EPSP SYNTHASES” (priority 2005, published 2010) are described below.

For this assay, the system named is ΔaroA E. coli cells. The assay is described as follows: Complementation of ΔaroA E. coli cells (functional EPSP synthase). In kind it is cell-based. Particulars: plasmid transformed into ΔaroA E. coli cells.

B1: grg6: EPSP synthase ORF from Pseudomonas syringae pv. tomato strain DC3000, in plasmid pAX703 (SEQ ID NO:1/2) (protein)
chain: MRPQATLTVMPVERPLVGRVSPPGSKSITNRALLLAGLAKGTSRLTGALKSDDTRVMSEALRLMGVQVDEPDDSTFVVTSSGHWQAPQQALFLGNAGTATRFLTAALANFEGDFVVDGDEYMRKRPIGPLVDALQRMGVEISAPSGCPPVAIKGKGGLQAGRIEIDGNLSSQYVSALLMAGACGKGSLEVALTGSEIGARGYVDLTLAAMQAFGAEVQAIGDAAWKVSATGYHATDFHIEPDASAATYLWAAQALTEGNIDLGVASDAFTQPDALASQIIDSFPNMPAVIDGSQMQDAIPTLAVLAAFNRQPVRFVGIANLRVKECDRISALCDGLCAIAPGLAVEEGDDLIVHANPALAGTTVNALIDTHSDHRIAMCFALAGLKIKGIHIQDPDCVAKTYPGYWDALASLGVSVQR
In the case of B1, the “Complementation of the aroA deletion” value is listed as “complement the deletion”.

B2: grg9: EPSP synthase ORF from Agrobacterium tumefaciens strain C58, in plasmid pAX702 (SEQ ID NO:3/4) (protein)
chain: MIELTITPPGHPLSGKVEPPGSKSITNRALLLAGLAKGKSHLSGALKSDDTLYMAEALREMGVKVTEPDATTFVVEGTGVLQQPEKPLFLGNAGTATRFLTAAGALVDGAVIIDGDEHMRKRPILPLVQALRALGVEADAPTGCPPVTVRGKGMGFPKGSVTIDANLSSQYVSALLMAAACGDKPVDIILKGEEIGAKGYIDLTTSAMEAFGAKVERVSNAIWRVHPTGYTATDFHIEPDASAATYLWGAELLTGGAIDIGTPADKFTQPDAKAYEVMAQFPHLPAEIDGSQMQDAIPTIAVIAAFNETPVRFVGIANLRVKECDRIRAVSLGLNEIREGLAHEEGDDLIVHADPSLAGQTVDASIDTFADHRIAMSFALAALKIGGIAIQNPACVAKTYPGYWKALASLGVDYTEKESAAEPQH
With B2, the “Complementation of the aroA deletion” value was “complement the deletion”.
